Molecular target: hif1a_human HIF1A (UniProt Q16665)
Sequence (Q16665 whole entry, looked up): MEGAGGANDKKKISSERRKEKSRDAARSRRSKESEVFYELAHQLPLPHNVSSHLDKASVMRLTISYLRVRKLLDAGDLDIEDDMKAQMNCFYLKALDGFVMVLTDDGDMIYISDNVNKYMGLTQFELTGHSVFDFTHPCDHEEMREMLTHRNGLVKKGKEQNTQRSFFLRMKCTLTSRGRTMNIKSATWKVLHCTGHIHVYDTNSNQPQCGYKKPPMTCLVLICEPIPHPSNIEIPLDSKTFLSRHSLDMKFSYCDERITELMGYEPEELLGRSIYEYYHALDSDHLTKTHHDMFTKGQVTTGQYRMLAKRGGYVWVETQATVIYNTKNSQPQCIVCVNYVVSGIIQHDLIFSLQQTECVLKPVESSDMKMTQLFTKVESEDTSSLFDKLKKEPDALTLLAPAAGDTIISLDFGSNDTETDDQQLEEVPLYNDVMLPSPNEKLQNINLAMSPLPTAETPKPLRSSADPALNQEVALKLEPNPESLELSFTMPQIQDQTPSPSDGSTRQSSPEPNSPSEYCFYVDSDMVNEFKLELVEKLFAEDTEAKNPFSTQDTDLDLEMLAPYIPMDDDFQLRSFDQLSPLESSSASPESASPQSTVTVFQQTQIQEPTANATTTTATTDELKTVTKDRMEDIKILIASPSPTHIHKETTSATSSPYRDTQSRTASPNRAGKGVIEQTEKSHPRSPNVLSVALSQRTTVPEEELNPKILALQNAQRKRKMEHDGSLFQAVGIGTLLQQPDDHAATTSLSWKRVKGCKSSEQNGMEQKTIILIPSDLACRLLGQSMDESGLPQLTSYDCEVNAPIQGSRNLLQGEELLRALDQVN

Chain of Pyruvate kinase PKM (Homo sapiens), P14618-1 P403A;P408A (P14618 whole entry P403A/P408A): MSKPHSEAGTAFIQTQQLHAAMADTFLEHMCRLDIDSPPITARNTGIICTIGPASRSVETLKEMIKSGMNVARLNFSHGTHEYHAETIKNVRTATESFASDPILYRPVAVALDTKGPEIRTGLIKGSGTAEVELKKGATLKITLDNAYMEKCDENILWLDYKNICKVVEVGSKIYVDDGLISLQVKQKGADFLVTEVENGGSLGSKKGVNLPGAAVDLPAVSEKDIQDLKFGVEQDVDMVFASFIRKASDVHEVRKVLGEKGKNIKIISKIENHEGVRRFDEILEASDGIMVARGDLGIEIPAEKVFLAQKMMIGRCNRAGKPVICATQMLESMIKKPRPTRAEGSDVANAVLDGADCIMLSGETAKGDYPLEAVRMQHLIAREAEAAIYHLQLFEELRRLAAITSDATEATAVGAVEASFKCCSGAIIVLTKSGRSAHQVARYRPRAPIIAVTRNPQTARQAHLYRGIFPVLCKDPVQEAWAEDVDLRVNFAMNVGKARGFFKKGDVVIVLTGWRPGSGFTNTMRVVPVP

- effect of a mutation on the interaction: decreasing interaction strength
Substance: Pyruvate kinase PKM (Homo sapiens), P14618-1 P403A;P408A

From IntAct's records for PubMed 21620138
